Data as given in article PMC4837482, “The complex binding mode of the peptide hormone H2 relaxin to its receptor RXFP1” (Nature Communications, 2016).
Positions count from the first letter of the chain named.

Key:
RXFP1(1–72) = target: T1, RXFP1(1–72) (Homo sapiens, UniProt Q9HBX9); test: NMR competition titration against the RXFP1(1–72)/Mn2+-DTPA-(A)-H2 complex; type: binding; settings: 50 μM peptide added to 50 μM 15N-RXFP1(1–72) with 0.2 μM Mn2+-DTPA-(A)-H2; pH 6.8, 25 °C
T1 construct: GB1 (N, cleaved yes); made in house; host or cells: E. coli BL21 (DE3) trxB
T1 sequence (Q9HBX9 23-94 limits assumed): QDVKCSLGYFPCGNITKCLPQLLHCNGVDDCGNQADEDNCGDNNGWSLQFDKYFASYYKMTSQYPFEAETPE
Method: All RXFP1(1–72) protein samples for nuclear magnetic resonance (NMR) experiments were prepared from lyophilized protein in 50 mM imidazole, with 10 mM CaCl2 at pH 6.8. Recombinant human gene-2 H2 relaxin peptide was kindly provided by Corthera. EL1^(475–486)/EL2-GB1 samples were prepared as described above. Titrant and titrand were dialyzed in the same buffer in the same vessel. All NMR experiments were routinely collected at 25 °C on a 700-MHz Bruker Avance HDIII spectrometer equipped with triple resonance cryoprobe. […] Backbone assignments were made from 3D HNCACB, HNCOCACB, HNCO and HNCACO experiments. Spectra were processed using NMRPipe (ref. [43]) and typically Fourier-transformed after applying Lorentz-to-Gauss window functions in the direct dimension and cosine bells in the indirect dimensions. NMR data were analysed using SPARKY (Goddard, T.D. and Kneller, D.G., University of California, San Francisco). Assignments of the mutant RXFP1(1–72) proteins were determined from the assignments of wild-type RXFP1(1–72).
^15N{^1H}-NOE experiments[45] (2,048 × 256 data points) were acquired with a saturation pulse of 4 s and an additional relaxation delay of 5 s. Sample conditions were 150 μM RXFP(1–72) or mutants either without or with 450 μM H2 relaxin. Binding to Mn^2+-DTPA-(A)-H2 to RXFP1(1–72) and mutants was monitored by recording 2D ^1H-^15N HSQC (2,048 × 256 data points) for 0.2 μM Mn^2+-DTPA-(A)-H2 against 50 μM RXFP1(1–72). H2 relaxin and its truncates such as A-chain (9–24), H2/I5 chimera and Phe23Ala A-chain mutant H2 were titrated into a complex of 50 μM RXFP1(1–72) and 0.2 μM Mn^2+-DTPA-(A)-H2 with increasing concentrations ranging from 5 to 50 μM.

[1] = target: T2, RXFP1 G45A/W46A, full length (human); test: cell-based or functional assay
T2 chain: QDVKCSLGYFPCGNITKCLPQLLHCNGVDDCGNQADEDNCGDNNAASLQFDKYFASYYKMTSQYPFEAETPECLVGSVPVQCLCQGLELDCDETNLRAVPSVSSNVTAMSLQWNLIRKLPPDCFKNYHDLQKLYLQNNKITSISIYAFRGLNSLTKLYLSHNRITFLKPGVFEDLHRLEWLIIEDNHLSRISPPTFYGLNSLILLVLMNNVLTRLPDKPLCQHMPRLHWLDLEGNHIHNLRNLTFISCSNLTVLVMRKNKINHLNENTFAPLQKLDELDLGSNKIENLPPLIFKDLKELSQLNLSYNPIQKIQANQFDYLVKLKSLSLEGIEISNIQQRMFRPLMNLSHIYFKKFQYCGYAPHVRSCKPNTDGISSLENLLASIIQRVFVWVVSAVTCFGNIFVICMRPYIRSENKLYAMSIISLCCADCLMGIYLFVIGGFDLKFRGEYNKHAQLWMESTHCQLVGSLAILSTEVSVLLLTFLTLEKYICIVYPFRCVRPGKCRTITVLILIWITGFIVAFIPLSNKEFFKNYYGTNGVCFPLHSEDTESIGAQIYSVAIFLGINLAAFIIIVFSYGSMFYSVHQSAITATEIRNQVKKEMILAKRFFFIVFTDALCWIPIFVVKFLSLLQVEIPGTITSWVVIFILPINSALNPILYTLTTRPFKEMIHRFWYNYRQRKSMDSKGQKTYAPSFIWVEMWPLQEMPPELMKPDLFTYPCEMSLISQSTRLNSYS

[2] = target: T3, RXFP1 G41A/D42A, full length (human); test: cell-based or functional assay
T3 chain: T2 chain with G41A, D42A, A45G, A46W

With “H2 relaxin: two-chain 6-kDa peptide hormone structurally related to insulin; recombinant human gene-2 H2 relaxin provided by Corthera” the “competition with Mn2+-DTPA-(A)-H2 for RXFP1(1–72) (peak intensities, chemical shifts)” value (RXFP1(1–72)) was “reappearance of the broadened peaks”.

B1: H2 relaxin (ligand, human)
chain 1: QLYSALANKCCHVGCTKRSLARFC
chain 2: DSWMEEVIKLCGRELVRAQIAICGMSTWS
B1 was tested, and the “H2 relaxin-induced cAMP response (pCRE β-galactosidase reporter, HEK293T), pEC50” value [1] was less than 6 pEC50 and the “H2 relaxin-induced cAMP response (pCRE β-galactosidase reporter, HEK293T), pEC50” value [2] was 7.26 pEC50.
